The results in this text go back to article PMC7707563, “Lack of evidence for expression and function of IL-39 in human immune cells” (PLoS ONE, 2020).

The target of experiment [1] is human IL-23 receptor on HEK-Blue IL-23 cells (human) (UniProt Q5VWK5).
For experiment [2], the target named is T1, human IL-23 p19 (aa20-189) (human, UniProt Q9NPF7 20-189).
T1 construct: human IL-23 p19 subunit, aa20-189, ORF in the mammalian expression vector pRS5a, untagged; The stated range lacks the protein's own signal peptide, yet the protein is secreted; also called IL-23A-p19; source: HEK293FT, transfected (pRS5a-IL23p19), in concentrated supernatant
T1 sequence (looked up): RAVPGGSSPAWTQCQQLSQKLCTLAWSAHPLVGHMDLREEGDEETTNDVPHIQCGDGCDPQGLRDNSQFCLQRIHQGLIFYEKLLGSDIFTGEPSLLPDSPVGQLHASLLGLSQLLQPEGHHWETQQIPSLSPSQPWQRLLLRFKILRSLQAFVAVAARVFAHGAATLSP
The experiment can be described thus: ELISA; sandwich: plate coated with anti-p19 antibody, concentrated supernatants of p19 and EBI3-His transfected HEK293FT cells 2 hrs at room temperature, detection with biotinylated EBI3 antibody and HRP-Avidin. Conditions: partners not purified. (In an ELISA, binding on a coated surface is turned into a signal by an enzyme label.)

Sequence of human IL-23 receptor on HEK-Blue IL-23 cells (human) (Q5VWK5 24-629): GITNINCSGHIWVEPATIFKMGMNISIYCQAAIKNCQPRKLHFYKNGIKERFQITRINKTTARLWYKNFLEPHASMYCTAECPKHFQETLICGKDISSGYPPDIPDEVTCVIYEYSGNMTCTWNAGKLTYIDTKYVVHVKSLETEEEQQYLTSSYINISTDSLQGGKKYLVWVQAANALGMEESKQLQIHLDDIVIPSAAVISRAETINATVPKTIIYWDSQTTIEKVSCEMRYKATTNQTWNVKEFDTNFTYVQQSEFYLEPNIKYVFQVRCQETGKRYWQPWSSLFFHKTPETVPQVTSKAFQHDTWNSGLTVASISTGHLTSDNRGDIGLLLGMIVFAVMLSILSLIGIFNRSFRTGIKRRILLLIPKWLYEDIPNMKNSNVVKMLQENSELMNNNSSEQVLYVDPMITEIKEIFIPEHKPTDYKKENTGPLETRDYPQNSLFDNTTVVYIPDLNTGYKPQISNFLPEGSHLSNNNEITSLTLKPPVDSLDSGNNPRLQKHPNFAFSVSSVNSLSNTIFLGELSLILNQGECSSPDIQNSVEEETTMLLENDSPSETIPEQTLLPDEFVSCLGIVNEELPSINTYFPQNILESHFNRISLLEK

“recombinant human IL-23 (from UniProt Q9NPF7 20-189; P29460 23-328) (complex)” had an STAT3 activity (SEAP reporter) over background in HEK-Blue IL-23 cells, various concentrations of IL-23, concentration-dependent; number printed for 2 pM IL-23 in experiment [1] of 2.5 fold.

B1: C-terminally 10 x His-tagged EBI3 (natural protein, human, UniProt Q14213 21-229, looked up)
chain: RKGPPAALTLPRVQCRASRYPIAVDCSWTLPPAPNSTSPVSFIATYRLGMAARGHSWPCLQQTPTSTSCTITDVQLFSMAPYVLNVTAVHPWGSSSSFVPFITEHIIKPDPPEGVRLSPLAERQLQVQWEPPGSWPFPEIFSLKYWIRYKRQGAARFHRVGPIEATSFILRAVRPRARYYVQVAAQDLTDYGELSDWSLPATATMSLGK
notes: human Epstein-Barr Virus-induced 3 (EBI3), aa21-229, ORF in the mammalian expression vector pRS5a; The limits aa21-229 are printed for EBI3; also called EBI3-His; His-EBI3; source: HEK293FT, transfected (pRS5a-EBI3-His10), in concentrated supernatant; not shown: His10, C-terminal, kept
On to B1, for which, in experiment [2], the “fold increase in optical density against supernatants of mock or single transfected cells” value was around 2.5 fold.
